PMC8558138
Where “and” joins values, the source holds several entries; their conditions need not be identical. Equal values may be shown once. Read-outs that look alike come from different tables or passages of the source.

Assays:
[1] = target: Purified recombinant full-length HERV-W ENV protein (pHERV-W ENV) produced in E. coli (human); assay: automated capillary Western blot (Simple Western, WES); purified rENV monomers incubated in serum-free DMEM with sulfatides from bovine brain; detection with GN_mAb_Env01, or GN_mAb_Env04 after deglycosylation
[2] = target: Purified recombinant full-length HERV-W ENV protein (pHERV-W ENV) produced in E. coli (human); assay: automated capillary Western blot (Simple Western, WES); purified rENV incubated up to 24 h at 37 °C in DMEM with 10% FBS (also with 1.5% SDS overnight: only a low proportion of hexamer); samples denatured at 95 °C; detection with GN_mAb_Env01; denaturation-resistant oligomers
[3] = target: pHERV-W ENV soluble antigen from MS brain active lesions (human (endogenous in MS brain lesions)); assay: automated capillary Western blot (Simple Western, WES); soluble fraction of frozen brain white matter blocks (MS active lesions), fos-cholin 16 extraction, >= 120 kDa enriched on AMICON, denaturing conditions; detection with GN_mAb_Env01-biotin, or GN_mAb_Env04 after deglycosylation
[4] = target: pHERV-W ENV expressed in transfected HEK293T cells (pCMV-HERV-W ENV) (human); assay: automated capillary Western blot (Simple Western, WES); lysates of transfected HEK293T cells in RIPA with 1% fos-cholin 16, soluble and insoluble fractions, denatured at 95 °C; 12-230 kDa and 66-440 kDa matrices; detection with GN_mAb_Env01, GN_mAb_Env04, GN_mAb_Env-K01 or anti-FLAG
[5] = target: pHERV-W ENV expressed in transfected HEK293T cells (pCMV-HERV-W ENV) (human); assay: as above; remark: listed apart in the source

With “Purified recombinant full-length HERV-W ENV protein (pHERV-W ENV) produced in E. coli (natural protein)” the stoichiometry N [1] was 6 and the stoichiometry N [2] was 6 and 2.

“pHERV-W ENV soluble antigen from MS brain active lesions (natural protein)” showed a stoichiometry N [3] of 6.

“pHERV-W ENV expressed in transfected HEK293T cells (pCMV-HERV-W ENV) (natural protein)” showed a stoichiometry N [4] of 3 and a stoichiometry N [5] of 2.
